Experimental data: patent publication US9518268B2, “Drought tolerant transgenic plants and method of making same” (PURDUE RESEARCH FOUNDATION, priority 2013, dated 2016)

B1: PYL13: Arabidopsis thaliana PYR/PYL/RCAR family protein PYL13, SEQ ID NO: 1 (protein, listed as Arabidopsis thaliana)
chain: MESSKQKRCRSSVVETIEAPLPLVWSILRSFDKPQAYQRFVKSCTMRSGGGGGKGGEGKGSVRDVTLVSGFPADFSTERLEELDDESHVMVVSIIGGNHRLVNYKSKTKVVASPEDMAKKTVVVESYVVDVPEGTSEEDTIFFVDNIIRYNLTSLAKLTKKMMK

Key:
Test in all cases: Phosphatase activity assay (pNPP) with purified PP2Cs and PYLs
[1] = system: ABI1; type: biochemical, Arabidopsis thaliana; conditions: in the presence of 10 μM ABA; ABI1 and PYLs 0.3 μM
Procedure: (§1) The inhibition by PYL13 is ABA-independent, whereas the inhibition by PYR1 and PYL2 is ABA-induced (FIG. 4B). […] The phosphatase activities of PP2CA, ABI1, and ABI2 were measured in the absence or presence of ABA (1.25 μM), and with or without PYLs. The concentration of PP2Cs and PYLs was 0.3 μM. The A405 value of reaction without PP2C was set as 0% and that of the reaction with PP2C but without ABA and PYLs was set as 100%. Error bars indicate s.e.m. (n=6 for PP2CA and ABI2, and n=3 for ABI1).
(§2) To test the functional significance of potential heterodimer formation between PYL13 and other PYLs, the abilities of PYL1 and PYL2 and the protein complexes PYL13-PYL1 and PYL13-PYL2 to inhibit the phosphatase activity of ABI1 were compared using purified recombinant proteins and the synthetic phosphatase substrate pNPP. […] The phosphatase activity of ABI1 was measured (using pNPP) in the absence or presence of 10 μM ABA, with or without PYLs, and with PYL13-PYL dimers. The concentration of ABI1 and PYLs was 0.3 μM. The A405 value of reaction without ABI1 was set as 0% and that of the reaction with ABI1 but without ABA and PYLs was set as 100%. Error bars indicate s.e.m. (n=6). In the presence of 10 μM ABA, ABI1 phosphatase activity was reduced to 67±6% by PYL1 but only to 88±8% by PYL13-PYL1. In the presence of 10 μM ABA, ABI1 phosphatase activity was reduced to 50±3% by PYL2 but only to 78±10% by PYL13-PYL2.
(§3) Phosphatase activity was measured using the colorimetric substrate p-nitrophenyl phosphate (pNPP, SIGMA). Reactions were performed in a reaction buffer containing 50 mM Tris-HCl, pH 7.5, 25 mM Mg(OAc)2, 2 mM MnCl2, 0.5 mM EGTA, 0.5% β-mercaptoethanol, and 0.5% BSA. ABA and PYLs were added as indicated. The concentration of PP2Cs and PYLs was 0.3 μM. Reactions were initiated by the addition of pNPP to a final concentration of 50 mM. The hydrolysis of pNPP was measured by following the absorbance at 405 nm (A405). Because His-PYL13 is difficult to purify, is prone to degradation, and rapidly loses activity, newly purified PYL13 was used for the phosphatase activity assay.

[2] = target: T1, ABI2 (Arabidopsis thaliana, UniProt O04719); type: biochemical; conditions: PP2Cs and PYLs 0.3 μM
T1 construct: GST (N, cleaved yes); made in house; host or cells: Escherichia coli BL21 (DE3.0)
T1 sequence (O04719 1-423): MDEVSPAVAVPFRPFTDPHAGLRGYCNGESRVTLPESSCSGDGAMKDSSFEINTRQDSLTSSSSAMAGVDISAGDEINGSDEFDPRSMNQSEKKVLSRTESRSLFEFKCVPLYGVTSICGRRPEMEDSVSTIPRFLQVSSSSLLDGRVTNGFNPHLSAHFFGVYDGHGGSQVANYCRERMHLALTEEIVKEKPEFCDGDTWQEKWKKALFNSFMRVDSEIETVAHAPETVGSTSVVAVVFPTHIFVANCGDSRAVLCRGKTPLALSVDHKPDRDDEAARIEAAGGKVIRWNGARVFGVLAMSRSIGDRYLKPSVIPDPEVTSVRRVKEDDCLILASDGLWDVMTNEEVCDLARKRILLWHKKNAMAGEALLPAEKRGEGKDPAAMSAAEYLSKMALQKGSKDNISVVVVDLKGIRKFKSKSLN
Procedure: as §1, §3

[3] = target: T2, PP2CA (Arabidopsis thaliana, UniProt P49598); type: biochemical; conditions: PP2Cs and PYLs 0.3 μM
T2 construct: GST (N, cleaved yes); made in house; host or cells: Escherichia coli BL21 (DE3.0)
T2 sequence (P49598 1-399): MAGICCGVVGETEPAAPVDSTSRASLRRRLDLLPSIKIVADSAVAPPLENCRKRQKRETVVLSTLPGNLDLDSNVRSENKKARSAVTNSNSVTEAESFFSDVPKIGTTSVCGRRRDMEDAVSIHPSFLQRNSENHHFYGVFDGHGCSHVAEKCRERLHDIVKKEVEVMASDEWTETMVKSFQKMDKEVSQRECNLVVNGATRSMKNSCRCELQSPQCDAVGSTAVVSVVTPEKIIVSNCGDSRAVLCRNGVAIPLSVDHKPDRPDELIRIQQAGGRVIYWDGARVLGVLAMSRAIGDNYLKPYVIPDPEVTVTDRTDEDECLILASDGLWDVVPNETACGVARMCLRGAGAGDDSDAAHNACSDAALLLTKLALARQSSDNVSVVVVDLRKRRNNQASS
T2 sequence (Q9SN51 1-164 partner): B1 chain
Procedure: as §1, §3

[4] = target: T3, ABI1 (Arabidopsis thaliana, UniProt P49597); type: biochemical; conditions: PP2Cs and PYLs 0.3 μM
T3 construct: GST (N, cleaved yes); made in house; host or cells: Escherichia coli BL21 (DE3.0)
T3 sequence (P49597 1-434): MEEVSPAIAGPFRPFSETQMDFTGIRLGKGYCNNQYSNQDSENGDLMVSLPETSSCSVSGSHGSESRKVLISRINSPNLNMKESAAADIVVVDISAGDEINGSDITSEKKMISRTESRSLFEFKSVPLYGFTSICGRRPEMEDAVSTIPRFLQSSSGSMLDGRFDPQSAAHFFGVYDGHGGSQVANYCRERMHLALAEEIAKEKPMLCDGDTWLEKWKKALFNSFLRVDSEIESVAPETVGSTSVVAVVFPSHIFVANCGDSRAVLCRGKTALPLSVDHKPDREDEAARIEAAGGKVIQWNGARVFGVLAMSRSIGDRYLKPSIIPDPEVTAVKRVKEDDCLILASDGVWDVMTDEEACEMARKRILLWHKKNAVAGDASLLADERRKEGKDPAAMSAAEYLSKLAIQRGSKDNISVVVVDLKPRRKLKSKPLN
Procedure: as §1, §2, §3

Molecule	ABI1 phosphatase activity reduced to [1] [%]	ABI2 phosphatase activity reduced to ([2]; with 1.25 μM ABA) [%]	ABI2 phosphatase activity reduced to ([2]; without ABA) [%]	PP2CA phosphatase activity reduced to ([3]; with 1.25 μM ABA) [%]	PP2CA phosphatase activity reduced to ([3]; without ABA, PP2C without ABA and PYLs = 100%) [%]	ABI1 phosphatase activity reduced to ([4]; with 1.25 μM ABA) [%]	ABI1 phosphatase activity reduced to ([4]; without ABA) [%]
PYL2: Arabidopsis thaliana PYL family ABA receptor protein PYL2, AT2G26040	50±3	–	–	–	–	–	–
B1	–	93±6	89±8	54±5	55±5	75±3	75±3
